The values that follow come from patent US20240076384A1 (DRAGONFLY THERAPEUTICS, published 2024).

Positions count from the first letter of the chain named.

Sequences and labels used below:
B1: Human monoclonal antibody containing NKG2D-binding domain ADI-29379 (antibody, V domains shown)
VH: QVQLVQSGAEVKKPGASVKVSCKASGYTFTSYYMHWVRQAPGQGLEWMGIINPSGGSTSYAQKFQGRVTMTRDTSTSTVYMELSSLRSEDTAVYYCARGAPNYGDTTHDYYYMDVWGKGTTVTVSS
VL: EIVMTQSPATLSVSPGERATLSCRASQSVSSNLAWYQQKPGQAPRLLIYGASTRATGIPARFSGSGSGTEFTLTISSLQSEDFAVYYCQQYDDWPFTFGGGTKVEIK
notes: Tested as a human monoclonal antibody; also called E79; ADI-29379 (E79)
B2: Human monoclonal antibody containing NKG2D-binding domain ADI-29378 (antibody, V domains shown)
VH: QVQLVQSGAEVKKPGASVKVSCKASGYTFTSYYMHWVRQAPGQGLEWMGIINPSGGSTSYAQKFQGRVTMTRDTSTSTVYMELSSLRSEDTAVYYCAREGAGFAYGMDYYYMDVWGKGTTVTVSS
VL: B1 VL with M4L, V13L, N32Y, G50D, T53N, E70D, Q79E, S80P, Y91S, D93N
notes: Tested as a human monoclonal antibody; also called E78; ADI-29378 (E78)
B3: soluble mouse Fc-human NKG2D dimer (Fc fusion, UniProt P26718 78-216, looked up)
chain: FLNSLFNQEVQIPLTESYCGPCPKNWICYKNNCYQFFDESKNWYESQASCMSQNASLLKVYSKEDQDLLKLVKSYHWMGLVHIPTNGSWQWEDGSILSPNLLTIIEMQKGDCALYASSFKGYIENCSTPNTYICMQRTV
notes: also called mFc-hNKG2D; fusion protein of human NKG2D and murine Fc; not shown: mouse (murine) Fc
B4: CD33-TriNKET-A44 (ADI-27744 and a CD33 binding domain) (bispecific antibody, V domains shown)
VH 1: not shown
VL 1: DIQMTQSPSSVSASVGDRVTITCRASQGIDSWLAWYQQKPGKAPKLLIYAASSLQSGVPSRFSGSGSGTDFTLTISSLQPEDFATYYCQQGVSYPRTFGGGTKVEIK
VH 2: QVQLVQSGAEVKKPGASVKVSCKASGYTFTDYVVHWVRQAPGQGLEWMGYINPYNDGTKYNEKFKGRVTMTRDTSISTAYMELSRLRSDDTAVYYCARDYRYEVYGMDYWGQGTLVTVSS
VL 2: DIVLTQSPASLAVSPGQRATITCTASSSVNYIHWYQQKPGQPPKLLIYDTSKVASGVPARFSGSGSGTDFTLTINPVEANDTANYYCQQWRSYPLTFGQGTKLEIK
B5: NKG2D monoclonal antibody comprising ADI-27749 (antibody, V domains shown)
VH: EVQLVESGGGLVKPGGSLRLSCAASGFTFSSYSMNWVRQAPGKGLEWVSSISSSSSYIYYADSVKGRFTISRDNAKNSLYLQMNSLRAEDTAVYYCARGAPMGAAAGWFDPWGQGTLVTVSS
VL: B4 VL 1 with D30S, Y94F
notes: also called A49
B6: CD33-TriNKET-A49 (ADI-27749 and a CD33 binding domain) (bispecific antibody, V domains shown)
VH 1: B5 VH
VL 1: B4 VL 1 with D30S, Y94F
VH 2: B4 VH 2
VL 2: B4 VL 2
B7: NKG2D monoclonal antibody comprising ADI-27744 (antibody, V domains shown)
VH: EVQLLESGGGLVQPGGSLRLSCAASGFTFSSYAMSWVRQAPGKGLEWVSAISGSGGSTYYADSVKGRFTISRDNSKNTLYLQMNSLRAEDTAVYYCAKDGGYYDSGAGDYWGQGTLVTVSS
VL: B4 VL 1
notes: also called A44
B8: CD33-TriNKET-F63 (ADI-29463 and a CD33 binding domain) (bispecific antibody, V domains shown)
VH 1: not shown
VL 1: B1 VL with M4L, A9G, V13L, Y91D, D93Y, F96P
VH 2: B4 VH 2
VL 2: B4 VL 2
B9: NKG2D monoclonal antibody comprising F47 (antibody, V domains shown)
VH: QVQLQQWGAGLLKPSETLSLTCAVYGGSFSGYYWSWIRQPPGKGLEWIGEIDHSGSTNYNPSLKSRVTISVDTSKNQFSLKLSSVTAADTAVYYCARARGPWSFDPWGQGTLVTVSS
VL: DIQMTQSPSTLSASVGDRVTITCRASQSISSWLAWYQQKPGKAPKLLIYKASSLESGVPSRFSGSGSGTEFTLTISSLQPDDFATYYCQQYDTFITFGGGTKVEIK
notes: Monoclonal antibody

In experiment [1] the target is B3. As to the kind of experiment: SPR (Biacore 8K), antibody captured on anti-human Fc, soluble mouse Fc-human NKG2D dimer as analyte, 37 C, 1:1 fit. As to the method:
(§1) Kinetics and affinity of various NKG2D-binding domains were assessed by surface plasmon resonance using Biacore 8K instrument (GE Healthcare). Anti-human Fc antibody was immobilized on a CM5 chip using standard amine coupling chemistry. Human monoclonal antibodies containing various NKG2D-binding domains were captured on the anti-human Fc chip at a density of approximately 100 RU. Solutions containing 0.411-100 nM soluble mouse Fc-human NKG2D dimers were injected over the captured NKG2D antibodies and control surfaces at 30 μl/min at 37° C. Surfaces were regenerated between cycles by quick injection of 10 mM glycine, pH 1.8. To obtain kinetic rate constants, double-referenced data were fit to a 1:1 interaction model using Biacore 8K Evaluation software (GE Healthcare). The equilibrium binding constant KD was determined by the ratio of dissociation constant kd and association constant kₐ (kd/kₐ).

The target in experiment [2] is B3. As to the kind of experiment: SPR (Biacore 8K), antibody captured on anti-human Fc, soluble mouse Fc-human NKG2D dimer as analyte, 37 C, kd/ka. As to the method: as §1
In general terms: In SPR one partner is held on a chip, and binding of the other changes the refractive index at the surface.

The target of experiment [3] is T1, ULBP6 (NKG2D natural ligand) (Homo sapiens (Human), UniProt Q5VY80 26-218).
T1 sequence: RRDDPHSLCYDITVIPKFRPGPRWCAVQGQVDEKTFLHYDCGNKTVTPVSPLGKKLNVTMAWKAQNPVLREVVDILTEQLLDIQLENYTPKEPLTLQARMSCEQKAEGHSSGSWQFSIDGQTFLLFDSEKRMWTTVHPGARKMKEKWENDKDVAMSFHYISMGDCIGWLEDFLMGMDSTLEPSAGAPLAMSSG
Put plainly: SPR (Biacore 8K, 25 C), captured mouse Fc-human NKG2D, consecutive injections; ULBP6 injected after A44 (ADI-27744 antibody) was bound. An excerpt: (§2) Briefly, mouse Fc-human NKG2D was captured using an anti-mouse Fc antibody immobilized on a CM5 chip at a density of approximately 100 RU. […] Biacore 8K evaluation software was used for all data analysis.

In experiment [4] the target is T2, human NKG2D expressed on EL4 cells (human, UniProt P26718 1-216).
T2 construct: whole, on cells; also called NKG2D on EL4 cells; extracellular NKG2D expressed on EL4 cells
T2 sequence (looked up): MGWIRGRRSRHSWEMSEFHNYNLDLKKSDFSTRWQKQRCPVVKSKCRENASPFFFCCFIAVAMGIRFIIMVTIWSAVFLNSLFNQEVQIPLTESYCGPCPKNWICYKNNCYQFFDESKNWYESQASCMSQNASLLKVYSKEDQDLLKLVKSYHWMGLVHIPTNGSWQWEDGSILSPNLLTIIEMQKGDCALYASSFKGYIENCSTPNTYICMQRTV
Put plainly: flow cytometry on EL4 cells expressing NKG2D, anti-human IgG secondary, fold over background against parental EL4 cells. Here is the method:
EL4 mouse lymphoma cell lines were engineered to express human NKG2D. […] The binding of the multispecific binding proteins to NKG2D was detected using fluorophore-conjugated anti-human IgG secondary antibodies. Cells were analyzed by flow cytometry, and fold-over-background (FOB) was calculated using the mean fluorescence intensity (MFI) of NKG2D expressing cells compared to parental EL4 cells.
A general note: A flow cytometer gives signals particle by particle.

In experiment [5] the target is T3, CD33 expressed on human AML cell line MV4-11 (human, UniProt P20138 18-364).
T3 construct: whole, on cells; also called CD33 expressed on Mv4-11 cells
Put plainly: flow cytometry on Mv4-11 cells, anti-human IgG secondary, fold over background against secondary antibody control. Here is the method: Human AML cell line MV4-11, expressing CD33 was used to assay the binding of TriNKETs to the tumor-associated antigen. TriNKETs and the parental CD33 monoclonal antibody were incubated with the cells, and the binding was detected using fluorophore-conjugated anti-human IgG secondary antibodies. Cells were analyzed by flow cytometry, and fold-over-background (FOB) was calculated using the mean fluorescence intensity (MFI) from TriNKETs and the parental monoclonal CD33 antibody normalized to secondary antibody controls.

Experiment [6] has as its target B3. As to the kind of experiment: SPR (Biacore 8K); lower end of the group's range, tied to ADI-27744 by Table 9. Here is the method:
as §1

Experiment [7] addresses B3. As to the kind of experiment: SPR (Biacore 8K, 25 C), captured mouse Fc-human NKG2D, consecutive injections; F47 injected after A44 was bound.
From the text: as §2

T3 sequence (P20138 18-364): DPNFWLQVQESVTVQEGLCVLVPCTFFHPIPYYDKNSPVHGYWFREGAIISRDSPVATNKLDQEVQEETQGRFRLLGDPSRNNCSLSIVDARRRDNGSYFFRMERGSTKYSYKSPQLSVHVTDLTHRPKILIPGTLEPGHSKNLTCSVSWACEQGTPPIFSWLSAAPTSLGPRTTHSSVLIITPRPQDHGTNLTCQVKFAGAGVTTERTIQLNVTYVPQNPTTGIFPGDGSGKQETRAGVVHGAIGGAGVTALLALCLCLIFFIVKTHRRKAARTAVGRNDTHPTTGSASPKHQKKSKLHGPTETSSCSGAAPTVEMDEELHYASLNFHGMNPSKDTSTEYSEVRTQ

Usually koff stands for the rate constant with which the complex falls apart. The term kon denotes the rate constant with which the complex forms. The Kd is the free concentration of one partner at which half of the binding sites on the other are occupied at equilibrium, for simple one-to-one binding. A low value points to higher affinity. Turning to B1, in experiment [1], the koff is 0.0225 s⁻¹ and the kon turned out to be 443000 M⁻¹ s⁻¹. Further, the Kd in experiment [2] came out at 50.7 nM.
In the same order, the values of B2 are 0.0487 s⁻¹, 832000 M⁻¹ s⁻¹ and 58.5 nM.
Regarding B3, the binding result in experiment [3] was “binds”.
As for B4, the binding result in experiment [4] and in experiment [5] was “binds” each time.
Consider B5, for which, in experiment [1], the koff worked out at 0.00489 s⁻¹ and the kon amounted to 395000 M⁻¹ s⁻¹. This molecule also registered a Kd in experiment [2] of 12.4 nM.
In the case of B6, the binding result in experiment [4] and in experiment [5] was “binds” throughout.
In experiment [1], B7 registered a koff of 0.00299 s⁻¹ and a kon of 295000 M⁻¹ s⁻¹. Also, the Kd in experiment [6] lay within 10 to 62 nM. For the same molecule, in experiment [2], the dissociation constant (Kd) stood at 10.1 nM.
On to B8, for which, in experiment [5], the binding result is recorded as “binds”.
For the molecule B9, in experiment [7], the binding result was “binds”.
